The values below come from patent US20240043568A1 (KEYMED BIOSCIENCES, published 2024).

Positions count from the first letter of the chain named.

One assay has as its target T1, human CD3 on T cells (human, UniProt P07766 23-207).
T1 construct: whole, on cells; The target is the native CD3 complex on cells; The recombinant antigen used elsewhere is the εγ heterodimer; also called CD3 on Jurkat cells; CD3 on human peripheral blood CD4+ and CD8+ T cells
Put plainly: flow cytometry, Jurkat cells. The method, then: Jurkat cells in the logarithmic growth phase were taken, added with 200 μg/mL of murine IgG (Jackson ImmunoResearch, 115-005-03), and incubated on ice for 30 minutes. The cells were adjusted to 5×10⁵ cells/mL with 4% calf serum and added to a 96-well U-shaped plate at 100 μl/well. The centrifugation was performed at 300 g. The supernatant was discarded. 100 μL of gradient diluted antibody (initial concentration: 1800 nM, 3-fold dilution, 10 gradients) was added to each well, and incubated at 4° C. for 60 min. The secondary antibody Alexa Fluro647 labeled goat anti-human IgG Fc (1:300 dilution) was added at 50 μL/well and incubated on ice for 20 min. After washing once, PI solution was added at 50 μL/well. Incubation was performed for 5 min before detection by flow cytometry (BD C6).

The next assay concerns the target T2, human GPC3 on cells (human, UniProt P51654 25-563).
T2 construct: whole, on cells; One molecule is used for both CHO-hGPC3 transfectants and GPC3+ HepG2 cells; The assay field names the cell; also called CHO-hGPC3 (clone 2B10); CHO-human GPC3
Put plainly: flow cytometry, CHO-human GPC3 cells. The procedure:
CHO-human GPC3 and CHO-cynomolgus monkey GPC3 stably-transfected cells in the logarithmic growth phase were taken, adjusted to 5×10⁵ cells/ml using 4% calf serum (Hyclone, SH30626.06), and added to a 96-well U-shaped plate at 100 μl/well cell suspension. The centrifugation was performed at 300 g for 5 min. The supernatant was discarded. 100 μL of gradient diluted antibody (initial concentration: 1800 nM, 3-fold dilution, 10 gradients) was added to each well, and incubated at 4° C. for 60 min. The secondary antibody Alexa Fluro647 labeled goat anti-human IgG Fc (1:300 dilution) was added at 50 μL/well and incubated on ice for 20 min. After washing once, propidium iodide solution (1:300) was added at 50 μL/well. Incubation was performed for 5 min before detection by flow cytometry.

Assay [1] concerns the target T3, recombinant human GPC3 protein (human, UniProt P51654 25-563).
T3 construct: also called human GPC3 full-length protein; recombinant GPC3 protein
Put plainly: SPR (Biacore T200), antibody on Protein A chip, GPC3 as analyte. The procedure: (§1) The antibodies with a concentration of 1 μg/ml were captured on the Protein A chip (GE healthcare). Different concentrations of recombinant human or cynomolgus monkey GPC3 protein (5 μg/ml as the initial concentration, 2-fold gradient, a total of 6 concentration points) as the analyte was flowed through the chip at a flow rate of 30 μL/min, with an association time of 120 seconds, and a dissociation time of 400 seconds. The changes in the SPR signal during the association and dissociation of the protein were recorded. The kinetic constants were obtained by fitting with 1:1 binding model using Biacore T200 evaluation software.

Assay [2] has as its target recombinant cynomolgus monkey GPC3 full-length protein (cynomolgus monkey, UniProt A0A2K5VK50 24-558). The assay is described as above. The procedure: as §1
In assay [3] the target is T4, human CD3εγ-Fc heterodimer (human).
T4 construct: also called human CD3 εγ protein; recombinant CD3 εγ protein
T4 chain 1: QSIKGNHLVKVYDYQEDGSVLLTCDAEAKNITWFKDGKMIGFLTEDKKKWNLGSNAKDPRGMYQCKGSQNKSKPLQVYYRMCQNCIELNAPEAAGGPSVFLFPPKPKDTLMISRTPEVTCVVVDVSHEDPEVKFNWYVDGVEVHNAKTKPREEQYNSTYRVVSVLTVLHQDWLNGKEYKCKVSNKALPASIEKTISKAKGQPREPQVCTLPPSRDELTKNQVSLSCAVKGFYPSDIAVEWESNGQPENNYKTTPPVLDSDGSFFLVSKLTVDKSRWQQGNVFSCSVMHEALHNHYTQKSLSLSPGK
T4 chain 2: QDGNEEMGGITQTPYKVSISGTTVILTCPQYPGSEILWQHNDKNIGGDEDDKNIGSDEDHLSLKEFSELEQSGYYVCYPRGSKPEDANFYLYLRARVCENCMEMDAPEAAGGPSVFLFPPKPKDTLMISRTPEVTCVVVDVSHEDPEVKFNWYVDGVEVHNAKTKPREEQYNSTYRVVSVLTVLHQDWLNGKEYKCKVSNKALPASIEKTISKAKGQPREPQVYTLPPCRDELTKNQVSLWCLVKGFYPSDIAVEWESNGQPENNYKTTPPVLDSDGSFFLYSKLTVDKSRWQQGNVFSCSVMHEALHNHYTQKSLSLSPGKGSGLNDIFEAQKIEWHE
Put plainly: SPR (Biacore T200), CD3εγ amine-coupled to the chip, antibody as analyte. The method, then: (§2) Human or monkey CD3 εγ recombinant antigen at 10 μg/mL was bound to a CMS chip (GE healthcare) by amino coupling, and the antigen binding capacity was controlled to approximately 200 RU. After the baseline was stable, gradient diluted antibodies (initially with 10 μg/mL, 2-fold dilution, 7 gradients) were flowed through the chip at a flow rate of 30 μL/min, with an association time of 350 seconds and a dissociation time of 600 seconds. The kinetic constants were obtained by fitting with 1:1 binding model using Biacore T200 evaluation software.

For assay [4], the target named is T5, cynomolgus monkey CD3εγ-Fc heterodimer (cynomolgus monkey).
T5 construct: also called monkey CD3 εγ protein
T5 chain 1: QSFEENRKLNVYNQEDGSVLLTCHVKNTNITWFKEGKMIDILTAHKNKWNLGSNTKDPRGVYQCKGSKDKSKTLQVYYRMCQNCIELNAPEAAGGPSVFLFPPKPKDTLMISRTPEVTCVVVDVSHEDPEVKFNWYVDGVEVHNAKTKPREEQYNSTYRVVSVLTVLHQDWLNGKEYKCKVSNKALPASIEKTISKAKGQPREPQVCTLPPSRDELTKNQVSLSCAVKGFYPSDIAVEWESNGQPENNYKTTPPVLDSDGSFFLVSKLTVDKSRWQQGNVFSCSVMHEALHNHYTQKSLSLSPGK
T5 chain 2: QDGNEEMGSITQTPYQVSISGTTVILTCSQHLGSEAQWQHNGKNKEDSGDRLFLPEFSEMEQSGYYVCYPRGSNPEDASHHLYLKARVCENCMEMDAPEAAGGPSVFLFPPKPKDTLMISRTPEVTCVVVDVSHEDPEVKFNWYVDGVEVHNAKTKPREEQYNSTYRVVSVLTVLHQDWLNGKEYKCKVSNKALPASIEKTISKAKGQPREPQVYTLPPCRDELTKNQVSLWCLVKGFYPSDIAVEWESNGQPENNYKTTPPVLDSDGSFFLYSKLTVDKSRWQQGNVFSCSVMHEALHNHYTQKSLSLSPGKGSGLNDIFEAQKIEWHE
Described as above. The method, then:
as §2

B1: GPC3×CD3 κλ002 (bispecific antibody, human IgG4 S228P, kappa, lambda)
light 1: DVVMTQSPLSLPVTPGEPASISCRSSQSIVHSNGNTYLEWYLKKPGQSPQLLIYKVSNRFSGVPDRFSGSGSGTDFTLKISRVEAEDVGVYFCLQVTHVPLTFGQGTKLEIKRTVAAPSVFIFPPSDEQLKSGTASVVCLLNNFYPREAKVQWKVDNALQSGNSQESVTEQDSKDSTYSLSSTLTLSKADYEKHKVYACEVTHQGLSSPVTKSFNRGEC
heavy 1: QVQLVQSGAEVKKPGSSVKVSCKASGYTFADYEIHWVREAPGQGLEWMGAIHPGSGGTAYAQKFQGRVTLTADESSTTAYMELSSLRSEDTAVYYCTRYYSFAYWGQGTLVTVSSASTKGPSVFPLAPCSRSTSESTAALGCLVKDYFPEPVTVSWNSGALTSGVHTFPAVLQSSGLYSLSSVVTVPSSSLGTKTYTCNVDHKPSNTKVDKRVESKYGPPCPPCPAPEFEGGPSVFLFPPKPKDTLMISRTPEVTCVVVDVSQEDPEVQFNWYVDGVEVHNAKTKPREEQFNSTYRVVSVLTVLHQDWLNGKEYKCKVSNKGLASSIEKTISKAKGQPREPQVCTLPPSQEEMTKNQVSLSCAVKGFYPSDIAVEWESNGQPENNYKTTPPVLDSDGSFFLVSKLTVDKSRWQEGNVFSCSVMHEALHNHYTQKSLSLSLGK
light 2: QAVVTQEPSLTVSPGGTVTLTCRSSTGAVTTSNYANWVQEKPGQAPRGLIGGTNKRAPWTPARFSGSLLGGKAALTITGAQAEDEAEYYCVLWYSNLWVFGGGTKLTVLGQPKAAPSVTLFPPSSEELQANKATLVCLISDFYPGAVTVAWKADSSPVKAGVETTTPSKQSNNKYAASSYLSLTPEQWKSHRSYSCQVTHEGSTVEKTVAPTECS
heavy 2: EVQLVESGGGLVQPGGSLRLSCAASGFTFNTYAMNWVRKAPGKGLEWVGRIRSKYNNYATYYADSVKDRFTISRDDSKNSLYLQMNSLKTEDTAVYYCVRHGNFGNSYVSWFAYWGQGTLVTVSSASTKGPSVFPLAPCSRSTSESTAALGCLVKDYFPEPVTVSWNSGALTSGVHTFPAVLQSSGLYSLSSVVTVPSSSLGTKTYTCNVDHKPSNTKVDKRVESKYGPPCPPCPAPEFEGGPSVFLFPPKPKDTLMISRTPEVTCVVVDVSQEDPEVQFNWYVDGVEVHNAKTKPREEQFNSTYRVVSVLTVLHQDWLNGKEYKCKVSNKGLASSIEKTISKAKGQPREPQVYTLPPCQEEMTKNQVSLWCLVKGFYPSDIAVEWESNGQPENNYKTTPPVLDSDGSFFLYSKLTVDKSRWQEGNVFSCSVMHEALHNHYTQKSLSLSLGK
notes: also called GPC3 x CD3 κλ002; GPC3×CD3κλ bispecific antibody
In the case of B1, the half-maximal effective concentration (EC50) with human CD3 on T cells was found to be 36 nM; with human GPC3 on cells, 2.8 nM. The dissociation constant (Kd) came out at 1.35 nM in assay [1], 1.6 nM in assay [2], 15.9 nM in assay [3] and 23.9 nM in assay [4].

B2: GPC3×CD3 κλ003 (bispecific antibody, human IgG4 S228P, kappa, lambda)
light 1: B1 light 1 with E128K, Q129K
heavy 1: B1 heavy 1 with K145E, K211E
light 2: B1 light 2
heavy 2: B1 heavy 2
notes: also called GPC3 x CD3 κλ003; GPC3×CD3κλ bispecific antibody
As to B2, the concentration giving a half-maximal response (EC50) was 26 nM in the assay with human CD3 on T cells and 2.9 nM with human GPC3 on cells. The equilibrium dissociation constant (Kd) was 2.11 nM in assay [1], 1.91 nM in assay [2], 12.1 nM in assay [3] and 17.8 nM in assay [4].
